Test results: PMC4069162

Experiments:
Experiment in all cases: cross-linking; in vivo cross-linking with DSP in S. enterica ATCC14028SΔacrABΔmdsABC::Cm5ΔtolC::Tn10 cells coexpressing MdsA-flag, MdsB-myc and MdsC-hexahistidine (grown to OD600 = 0.8); MdsC-His isolated on a Ni-NTA resin column, cross-linked MdsA detected by anti-flag immunoblot
[1] = molecular target: MdsC-G433A with a c-terminal hexahistidine tag (Salmonella enterica serovar Typhimurium ATCC14028S)
[2] = molecular target: MdsC-G220A with a c-terminal hexahistidine tag (Salmonella enterica serovar Typhimurium ATCC14028S)
[3] = molecular target: MdsC-L441R with a c-terminal hexahistidine tag (Salmonella enterica serovar Typhimurium ATCC14028S)
[4] = molecular target: MdsC with a c-terminal hexahistidine tag (wild type) (Salmonella enterica serovar Typhimurium ATCC14028S)

Substance	MdsA crosslinked, percent of that with wild-type MdsC [1] [%]	MdsA crosslinked, percent of that with wild-type MdsC [2] [%]	MdsA crosslinked, percent of that with wild-type MdsC [3] [%]	crosslinking to MdsC, percent of wild type [4] [%]
MdsA with a c-terminal flag tag (wild type) (from UniProt A0A4P7XPD4 1-408) (natural protein)	39	20	16	–
MdsA-S146D with a c-terminal flag tag (from UniProt A0A4P7XPD4 1-408) (natural protein)	–	–	–	16
